Measured values as given in publication PMC8861115, “Characterization and structural analyses of a novel glycosyltransferase acting on the β-1,2-glucosidic linkages” (The Journal of Biological Chemistry, 2022).

Biological target: the molecule itself
Assay: SEC; Superdex 200 10/300 GL, 0.5 mg in 500 μl loaded, 5 mM MOPS pH 7.5, 100 mM ammonium sulfate, 1 mM DTT; calibrated with standard proteins

B1: IALB_1185 protein from Ignavibacterium album (IaSGT), wild type, recombinant (enzyme)
chain: MKPHNSEKYFVKNGQPHFLISGEVHYFRINPKLWRNHLQLLKQTGADTVSTYIPWDWHEIEEDDFDFEGKTHPARNLIRFIKLCKEENLDLIVKPGPYILAEYENQGLPSWLLKKLSKNAFALDENGNVISPDLVSYLSDEFLEYTFKWYDKVMPIISKHQKEHYGPITMMQLCNEIGVFQWLSGKSDYNPKVINLYKEFIIQRYKTIEKLNSVYSTNYNSFDDLKAPSGKIKLRSDYCAYFDFHLFFREYYNKYISILKNKIRSFGINIKLTHNIPGWIYGNASELPMLISTYSEIMKNHPDIIFGLDHIPEFVSFRNAHSDLACNKILEAMQPEAPVWAAEFQAGTREHHVKAYAKDLETFYIASLAHGIKGFNYYMFSQGINPEGKGFYGKTFYFQTALDAASNKLALYDSIKKVNRFIRKEQKDLLRTNVNSEICVGFYKPYFFTELISSQLLKEKKLNVEELGLYIDPRFLREEILFNGLLRGLQTLNYNYDVVDLENCDLKSLTAYKQLWITSAEFMDAETQNLLSEFVLNGGNLILYPAVPTLDNYLNRCEILKNNFGIEFITKDSSHKVSAFGIEDVFTAFSKKQIYNDTNSKPIAFTQENEICGIRKKIGKGELTILGFAFGYTSDEHLELIDKLVKLNKIKRELFVSDKDIQFVVRENNKSRYIFFLNYHNERKTFNYRKSSELKKKKSEEISIAPFSYKVIKENK
notes: IALB_1185 protein (GH35), Ignavibacterium album DSM19864, gene ialb_1185 amplified from genomic DNA and inserted into the NdeI and XhoI sites of pET30a(+); domains in the structure: TIM barrel 6-432, Rossmann fold 438-648, Ig-like 653-716; theoretical molecular mass of the recombinant protein 84,709.883; Surmise: cloning into NdeI/XhoI of pET30a(+) would give a C-terminal His6 tag; A …
With B1 the “stoichiometry N” value was 2.
